Test results: US20070093418A1 (Amgen, published 2007)
One block for each binder: values may come before it.

How the values were obtained:
2xCon4 (C) 1K [1] = molecular target: T1, 2xCon4 (C) 1K; assay: KinExA solution competition, 30 pM 2xCON4-C; soluble huAng-2 varied, competing with huAng-2 on beads
T1 construct: also called 2×Con4-C; 2×CON4-C (Pb5714)
From the text: (§1) Reacti-Gel 6× beads (Pierce, Rockford, Ill.) were pre-coated with huAng-2 and blocked with BSA. […] The amount of the bead-bound peptibody was quantified by fluorescent (Cy5) labeled goat anti-human-Fc antibody (Jackson Immuno Research, West Grove, Pa.). The binding signal is proportional to the concentration of free peptibody at equilibrium.
(§2) The dissociation equilibrium constant (KD) was obtained from nonlinear regression of the competition curves using a dual-curve one-site homogeneous binding model (KinE×™ software).

2xCon4 (C) 1K [2] = molecular target: T1, 2xCon4 (C) 1K; assay: KinExA solution competition, 10 pM 2xCON4-C; soluble huAng-2 varied, competing with huAng-2 on beads
From the text: as §1, §2

[3] = molecular target: T2, Negative Control Peptibody 4883 (Homo sapiens (Human), UniProt P0DOX5 223-449 = IgG part); assay: ELISA on conditioned medium with C-terminal hAng-2 (aa 255-495, C-terminal 6xHis); O.D. 370; pCDNA3 vector-control medium as blank
Method: (§3) The binding epitope of anti-Ang-2 antibodies and peptibodies was determined by their ability to bind the three versions of human hAng-2 by ELISA according to the following protocol: a high-binding 96-well assay plate was coated with 100 μl of conditioned media per well, and incubated at 37° C. for 1 hour. Conditioned media was aspirated, and the plate was blocked with 200 μl per well of 5% BSA in PBS at room temperature for 1 hour. The blocking solution was then aspirated. […] The wells were washed 4 times with 200 μl of 0.1% Tween in PBS. 100 μl per well of HRP-conjugated goat anti-human IgG or goat anti-mouse IgG were added, and incubated at room temperature for 45 minutes. The wells were then washed with 200 μl of 0.1% Tween in PBS 4 times. 100 μl per well of TMB substrate was then added. O.D. was read at 370 nm.

[4] = molecular target: T2, Negative Control Peptibody 4883; assay: ELISA on conditioned medium with N-terminal hAng-2 (aa 1-254, C-terminal 6xHis); O.D. 370; pCDNA3 vector-control medium as blank
Method: as §3

[5] = molecular target: T3, Tie-2-Fc (R&D Systems, catalog number 313-TI) (human, UniProt Q02763 23-748); assay: as above
T3 construct: extracellular domain; bought; also called hTie2-Fc; Recombinant Human Tie-2-Fc Chimera; not shown: Fc of the bought chimera
Method: as §3

Con4 (C) = molecular target: T4, Con4 (C) (Homo sapiens (Human), UniProt P0DOX5 223-449 = IgG part); assay: as above
T4 construct: also called TN8-Con4-C
Method: as §3

IC50 (read off the curve) (2xCon4 (C) 1K [1]): ~0.04 nM
IC50 (read off the curve) (2xCon4 (C) 1K [2]): ~0.01 nM
B1: human angiopoietin-2 (Ang-2) (ligand, UniProt O15123 19-496, looked up)
chain: YNNFRKSMDSIGKKQYQVQHGSCSYTFLLPEMDNCRSSSSPYVSNAVQRDAPLEYDDSVQRLQVLENIMENNTQWLMKLENYIQDNMKKEMVEIQQNAVQNQTAVMIEIGTNLLNQTAEQTRKLTDVEAQVLNQTTRLELQLLEHSLSTNKLEKQILDQTSEINKLQDKNSFLEKKVLAMEDKHIIQLQSIKEEKDQLQVLVSKQNSIIEELEKKIVTATVNNSVLQKQQHDLMETVNNLLTMMSTSNSAKDPTVAKEEQISFRDCAEVFKSGHTTNGIYTLTFPNSTEEIKAYCDMEAGGGGWTIIQRREDGSVDFQRTWKEYKVGFGNPSGEYWLGNEFVSQLTNQQRYVLKIHLKDWEGNEAYSLYEHFYLSSEELNYRIHLKGLTGTAGKISSISQPGNDFSTKDGDNDKCICKCSQMLTGGWWFDACGPSNLNGMYYPQRQNTNKFNGIKWYYWKGSGYSLKATTMMIRPADF
notes: Several preparations are used (R&D Systems protein, biotinylated R&D protein, 293T conditioned media); also called hAng-2; huAng-2

B2: C-term of hAng2 (aa 255-495) (ligand)
chain: VNNLLTMMSTSNSKDPTVAKEEQISFRDCAEVFKSGHTTNGIYTLTFPNSTEEIKAYCDMEAGGGGWTIIQRREDGSVDFQRTWKEYKVGFGNPSGEYWLGNEFVSQLTNQQRYVLKIHLKDWEGNEAYSLYEHFYLSSEELNYRIHLKGLTGTAGKISSISQPGNDFSTKDGDNDKCICKCSQMLTGGWWFDACGPSNLNGMYYPQRQNTNKFNGIKWYYWKGSGYSLKATTMMIRPADFHHHHHH
notes: also called C-terminal (amino acids 255-495) human Ang-2
binding result [3]: no binding (tested: 1 µg/ml (single concentration))

B3: N-term hAng2 (aa 1-254) (ligand)
chain: YNNFRKSMDSIGKKQYQVQHGSCSYTFLLPEMDNCRSSSSPYVSNAVQRDAPLEYDDSVQRLQVLENIMENNTQWLMKLENYIQDNMKKEMVEIQQNAVQNQTAVMIEIGTNLLNQTAEQTRKLTDVEAQVLNQTTRLELQLLEHSLSTNKLEKQILDQTSEINKLQDKNSFLEKKVLAMEDKHIIQLQSIKEEKDQLQVLVSKQNSIIEELEKKIVTATVNNSVLQKQQHDLMETHHHHHH
notes: also called N-terminal (amino acids 1-254) human Ang-2
binding result [4]: no binding (tested: 1 µg/ml (single concentration))
binding result [5]: no binding (tested: 1 µg/ml (single concentration))
binding result (Con4 (C)): no binding (tested: 1 µg/ml (single concentration))
